The results in this text go back to PMC11207964.

This series addresses EGFRvIII (UniProt P00533). In words: BLI. Particulars: inverted dT at the end, BLI: association 200 s, dissociation 400 s, PBS + 0.05% Tween-20 (stated for NOTA-aptamer dissociation), protein loading at room temperature, cells: DPBS ….

Turning to “TGAGTAAGTGAGTACCGTTTGCGATTTGGAGAACTACGCAATCA [EGFRvIII aptamer (44 nt)]”, where the note is “P = 2Nap-dU (5-[N-(2-naphthylmethyl)carboxamide]-2'-deoxyuridine), written as T at 5,9,13,18,19,20,25,26,27,35,42, T1 printed as T”, the Kd came to 0.87 nM.
For “TGAGTAAGTGAGTACCGTTTGCGATTTGGAGAACTACGCAATCA [NOTA-EGFRvIII aptamer]”, the Kd (protein on Ni-NTA probe, 125-500 nM aptamer, PBS 0.05% Tween-20, 2Nap-dU written as T at 5,9,13,18,19,20,25,26,27,35,42, 5'-amine conjugated to p-SCN-Bn-NOTA) was 2.05 nM.
